Reference: patent US20240085427A1 (published 2024)

Columns and labels:
[1] = target: T1, Anterior Gradient 2 (AGR2) (UniProt O95994 21-175); experiment: ELISA
T1 chain: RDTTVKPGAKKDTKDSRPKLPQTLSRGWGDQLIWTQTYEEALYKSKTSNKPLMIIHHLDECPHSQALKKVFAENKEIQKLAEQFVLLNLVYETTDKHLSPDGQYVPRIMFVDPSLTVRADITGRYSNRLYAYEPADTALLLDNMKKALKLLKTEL

[2] = target: Anterior Gradient 2 (AGR2) (UniProt O95994); experiment: cell-based or functional assay
[3] = target: T1, Anterior Gradient 2 (AGR2); experiment: BLI (Octet)
[4] = target: T2, bovine serum albumin (BSA) (bovine, UniProt P02769 25-607); experiment: ELISA on coated plates (FIG. 6A)
T2 construct: Control coating in ELISA; also called control (BSA)
T2 sequence (P02769 25-607 limits assumed): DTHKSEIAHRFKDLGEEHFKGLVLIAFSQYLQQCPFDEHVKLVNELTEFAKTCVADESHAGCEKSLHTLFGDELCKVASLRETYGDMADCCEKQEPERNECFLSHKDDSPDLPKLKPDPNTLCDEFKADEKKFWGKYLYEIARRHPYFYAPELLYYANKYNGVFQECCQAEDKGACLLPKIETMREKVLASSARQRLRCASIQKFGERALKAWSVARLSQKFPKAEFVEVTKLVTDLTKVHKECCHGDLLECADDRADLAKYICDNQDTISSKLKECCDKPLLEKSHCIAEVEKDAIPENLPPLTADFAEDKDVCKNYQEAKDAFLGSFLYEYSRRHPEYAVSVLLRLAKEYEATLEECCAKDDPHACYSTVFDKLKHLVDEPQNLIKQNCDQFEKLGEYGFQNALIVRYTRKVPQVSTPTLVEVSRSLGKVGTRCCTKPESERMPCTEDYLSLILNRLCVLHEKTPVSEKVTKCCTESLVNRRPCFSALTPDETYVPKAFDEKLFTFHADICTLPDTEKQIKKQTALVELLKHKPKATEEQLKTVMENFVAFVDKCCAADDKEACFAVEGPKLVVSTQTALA

[5] = target: T3, Anterior Gradient 2 (AGR2) (UniProt O95994 21-175, limits assumed); experiment: ELISA and SPR (so in the source); purified scFv on AGR2
T3 construct: In the killing assays AGR2 is the protein expressed by human Capan1 cells; also called PDIA17; Anterior gradient protein 2 homolog
T3 sequence (looked up): T1 chain

[6] = target: T3, Anterior Gradient 2 (AGR2); experiment: cell-based or functional assay
[7] = target: T3, Anterior Gradient 2 (AGR2); experiment: ELISA and SPR (so in the source); the same KD in mass units

B1: anti-AGR2 scFv clone 26 (scFv)
scFv: EVQLLESGGGLVQPGGSLRLSCAASGFTFSSYAMSWVRQAPGKGLEWVSSIQGQGRITRYADSVKGRFTISRDNSKNTLYLQMNSLRAEDTAVYYCAKRAIMFDYWGQGTLVTVSSGGGGSGGGGSGGGGSTDIQMTQSPSSLSASVGDRVTITCRASQSISSYLNWYQQKPGKAPKLLIYHASLLQSGVPSRFSGSGSGTDFTLTISSLQPEDFATYYCQQARYWPLTFGQGTKVEIK
EC50 [1]: > 100 µg/mL

B2: human targeted AGR2xCD3 BiTE (anti-AGR2 scFv clone-15 linked to anti-CD3 scFv derived from Orthoclone OKT3) (bispecific antibody, part only; not given: anti-CD3 scFv, linker, His tag, not shown: small tags and cut ends)
chain, part: EVQLLESGGGLVQPGGSLRLSCAASGFTFSSYAMSWVRQAPGKGLEWVSGISAQGAHTTYADSVKGRFTISRDNSKNTLYLQMNSLRAEDTAVYYCAKTYKGFDYWGQGTLVTVSSGGGGSGGGGSGGGGSTDIQMTQSPSSLSASVGDRVTITCRASQSISSYLNWYQQKPGKAPKLLIYSASRLQSGVPSRFSGSGSGTDFTLTISSLQPEDFATYYCQQGRRMPPTFGQGTKVEIKEVQLLESGGGLVQPGGSLRLSCAASGFTFSSYAMSWVRQAPGKGLEWVSGISAQGAHTTYADSVKGRFTISRDNSKNTLYLQMNSLRAEDTAVYYCAKTYKGFDYWGQGTLVTVSSGGGGSGGGGSGGGGSTDIQMTQSPSSLSASVGDRVTITCRASQSISSYLNWYQQKPGKAPKLLIYSASRLQSGVPSRFSGSGSGTDFTLTISSLQPEDFATYYCQQGRRMPPTFGQGTKVEIK
EC50 on Capan1 cell viability, BiTE alone (no PBMCs) [2]: 16.5 µM

B3: anti-AGR2 scFv clone 19 (scFv)
scFv: EVQLLESGGGLVQPGGSLRLSCAASGFTFSSYAMSWVRQAPGKGLEWVSAIASQGVATGYADSVKGRFTISRDNSKNTLYLQMNSLRAEDTAVYYCAKLDQHFDYWGQGTLVTVSSGGGGSGGGGSGGGGSTDIQMTQSPSSLSASVGDRVTITCRASQSISSYLNWYQQKPGKAPKLLIYQASRLQSGVPSRFSGSGSGTDFTLTISSLQPEDFATYYCQQARRLPLTFGQGTKVEIK
EC50 [1]: > 100 µg/mL

B4: anti-AGR2 scFv clone-15 (scFv)
scFv: EVQLLESGGGLVQPGGSLRLSCAASGFTFSSYAMSWVRQAPGKGLEWVSGISAQGAHTTYADSVKGRFTISRDNSKNTLYLQMNSLRAEDTAVYYCAKTYKGFDYWGQGTLVTVSSGGGGSGGGGSGGGGSTDIQMTQSPSSLSASVGDRVTITCRASQSISSYLNWYQQKPGKAPKLLIYSASRLQSGVPSRFSGSGSGTDFTLTISSLQPEDFATYYCQQGRRMPPTFGQGTKVEIK
notes: Found by phage display, cloned into pET22b, produced and purified in BL21(DE3) E. coli; also called AGR2-scFv-15; scFv-15
Kd [3]: 0.00157 µM | binding result [4]: no binding | Kd [5]: 0.179 µM | EC50 in the same TDCC assay (Capan1 cells with human PBMCs), scFv alone as comparator [6]: 19.8 µM | Kd [7]: 4.69 µg/mL
